What was measured:
[1] = biological target: T1, DVU1419 response regulator (Desulfovibrio vulgaris Hildenborough) (UniProt Q72C65); assay: EMSA; conditions: EMSA: 10 mM Tris-HCl pH 7.5, 1 mM DTT, 50 mM KCl, 5 mM MgCl2, 25% glycerol, 1 ug/ml poly dI-dC, 50-100 fmol biotin-DNA, 25-30 C, 20 min
T1 sequence: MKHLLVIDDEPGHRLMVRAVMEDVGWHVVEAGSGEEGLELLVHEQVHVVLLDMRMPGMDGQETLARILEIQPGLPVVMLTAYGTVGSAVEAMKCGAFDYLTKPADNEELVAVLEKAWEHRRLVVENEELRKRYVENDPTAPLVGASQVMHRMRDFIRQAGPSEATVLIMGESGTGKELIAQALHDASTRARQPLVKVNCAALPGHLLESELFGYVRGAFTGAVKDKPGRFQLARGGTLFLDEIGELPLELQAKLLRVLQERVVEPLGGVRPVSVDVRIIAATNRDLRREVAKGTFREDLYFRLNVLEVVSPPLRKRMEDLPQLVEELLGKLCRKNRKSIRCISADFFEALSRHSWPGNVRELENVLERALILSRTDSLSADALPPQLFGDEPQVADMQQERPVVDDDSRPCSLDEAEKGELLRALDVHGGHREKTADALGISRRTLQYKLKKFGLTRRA

[2] = biological target: T2, DVU0679 response regulator (Desulfovibrio vulgaris Hildenborough, UniProt Q72E99 1-488); assay: EMSA; EMSA: 10 mM Tris-HCl pH 7.5, 1 mM DTT, 50 mM KCl, 5 mM MgCl2, 25% glycerol, 1 ug/ml poly dI-dC, 50-100 fmol biotin-DNA, 25-30 C, 20 min; conditions: protein: recombinant; tags: C-terminal V5-6xHis; chain copies: 2; label: 5'-biotin top strand; blunt
T2 sequence: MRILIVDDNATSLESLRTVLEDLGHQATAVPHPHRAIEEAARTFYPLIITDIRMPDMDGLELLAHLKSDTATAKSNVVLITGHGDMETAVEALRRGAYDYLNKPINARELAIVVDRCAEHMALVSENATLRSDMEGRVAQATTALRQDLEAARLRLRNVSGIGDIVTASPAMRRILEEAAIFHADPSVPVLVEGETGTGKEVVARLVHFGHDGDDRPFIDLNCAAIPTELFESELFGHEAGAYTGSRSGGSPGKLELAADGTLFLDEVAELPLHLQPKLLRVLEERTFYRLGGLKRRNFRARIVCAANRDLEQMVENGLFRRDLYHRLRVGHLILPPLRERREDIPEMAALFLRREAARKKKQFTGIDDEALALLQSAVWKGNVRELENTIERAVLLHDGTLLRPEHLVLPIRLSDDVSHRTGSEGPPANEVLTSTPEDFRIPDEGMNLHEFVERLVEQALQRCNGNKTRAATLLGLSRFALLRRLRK

[3] = biological target: T3, DVU0118 response regulator (Desulfovibrio vulgaris Hildenborough, UniProt Q72FU5 1-454); assay: as above; conditions: protein: recombinant; tags: C-terminal V5-6xHis; chain copies: 2; label: 5'-biotin top strand; blunt
T3 sequence: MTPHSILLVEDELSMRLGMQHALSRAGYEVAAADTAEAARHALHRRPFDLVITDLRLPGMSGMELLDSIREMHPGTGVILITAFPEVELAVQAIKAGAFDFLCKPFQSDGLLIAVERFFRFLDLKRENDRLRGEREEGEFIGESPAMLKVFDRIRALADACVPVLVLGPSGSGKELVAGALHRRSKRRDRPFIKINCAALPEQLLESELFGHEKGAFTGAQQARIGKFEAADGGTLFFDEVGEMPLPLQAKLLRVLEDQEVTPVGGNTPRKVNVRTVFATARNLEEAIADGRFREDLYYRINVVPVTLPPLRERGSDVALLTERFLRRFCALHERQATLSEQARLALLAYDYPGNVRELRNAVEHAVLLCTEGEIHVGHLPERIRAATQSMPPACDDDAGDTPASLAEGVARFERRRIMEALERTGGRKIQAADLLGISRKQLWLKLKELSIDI

[4] = biological target: T3, DVU0118 response regulator; assay: EMSA; 10 mM Tris-HCl pH 7.5, 1 mM DTT, 50 mM KCl, 5 mM MgCl2, 25% glycerol, 1 ug/ml poly dI-dC, 50-100 fmol biotinylated DNA, 25-30 C, 20 min; conditions: protein: recombinant; tags: C-terminal V5-6xHis; chain copies: 2; label: 5'-biotin top strand
[5] = biological target: T4, DVU0946 response regulator (Desulfovibrio vulgaris Hildenborough, UniProt Q72DI3 1-476); assay: EMSA; EMSA: 10 mM Tris-HCl pH 7.5, 1 mM DTT, 50 mM KCl, 5 mM MgCl2, 25% glycerol, 1 ug/ml poly dI-dC, 50-100 fmol biotin-DNA, 25-30 C, 20 min; conditions: protein: recombinant; tags: C-terminal V5-6xHis; chain copies: 2; label: 5'-biotin top strand; blunt
T4 sequence: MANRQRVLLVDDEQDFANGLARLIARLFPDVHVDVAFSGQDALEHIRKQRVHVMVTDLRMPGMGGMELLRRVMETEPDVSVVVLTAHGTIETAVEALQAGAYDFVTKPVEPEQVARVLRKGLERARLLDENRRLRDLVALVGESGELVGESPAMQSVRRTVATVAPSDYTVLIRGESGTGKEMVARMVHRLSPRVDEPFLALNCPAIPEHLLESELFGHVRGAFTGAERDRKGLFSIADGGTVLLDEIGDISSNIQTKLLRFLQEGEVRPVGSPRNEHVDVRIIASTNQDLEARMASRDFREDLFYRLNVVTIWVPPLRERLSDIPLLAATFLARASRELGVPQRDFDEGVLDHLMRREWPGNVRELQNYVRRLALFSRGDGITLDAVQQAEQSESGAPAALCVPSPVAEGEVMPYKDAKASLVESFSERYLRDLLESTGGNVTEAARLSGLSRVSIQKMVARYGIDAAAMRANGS

[6] = biological target: T5, DVU0539 response regulator (Desulfovibrio vulgaris Hildenborough, UniProt Q72EN8 1-467); assay: as above; conditions: protein: recombinant; tags: C-terminal V5-6xHis; chain copies: 2; label: 5'-biotin top strand; blunt
T5 sequence: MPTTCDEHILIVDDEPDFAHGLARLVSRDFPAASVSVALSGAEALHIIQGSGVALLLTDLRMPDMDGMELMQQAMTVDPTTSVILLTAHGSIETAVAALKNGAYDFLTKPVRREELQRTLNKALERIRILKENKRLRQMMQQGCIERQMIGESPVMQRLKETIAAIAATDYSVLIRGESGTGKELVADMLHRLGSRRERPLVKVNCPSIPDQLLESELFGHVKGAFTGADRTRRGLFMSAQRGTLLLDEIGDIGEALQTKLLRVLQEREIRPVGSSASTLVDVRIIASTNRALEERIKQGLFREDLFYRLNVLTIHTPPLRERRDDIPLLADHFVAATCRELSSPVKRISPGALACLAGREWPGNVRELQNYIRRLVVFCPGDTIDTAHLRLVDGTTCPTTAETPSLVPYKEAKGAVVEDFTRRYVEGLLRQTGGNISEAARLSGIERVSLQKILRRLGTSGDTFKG

[7] = biological target: T6, DVU1419 response regulator (Desulfovibrio vulgaris Hildenborough, UniProt Q72C65 1-459); assay: as above; conditions: protein: recombinant; tags: C-terminal V5-6xHis; chain copies: 2; label: 5'-biotin top strand; blunt
T6 sequence: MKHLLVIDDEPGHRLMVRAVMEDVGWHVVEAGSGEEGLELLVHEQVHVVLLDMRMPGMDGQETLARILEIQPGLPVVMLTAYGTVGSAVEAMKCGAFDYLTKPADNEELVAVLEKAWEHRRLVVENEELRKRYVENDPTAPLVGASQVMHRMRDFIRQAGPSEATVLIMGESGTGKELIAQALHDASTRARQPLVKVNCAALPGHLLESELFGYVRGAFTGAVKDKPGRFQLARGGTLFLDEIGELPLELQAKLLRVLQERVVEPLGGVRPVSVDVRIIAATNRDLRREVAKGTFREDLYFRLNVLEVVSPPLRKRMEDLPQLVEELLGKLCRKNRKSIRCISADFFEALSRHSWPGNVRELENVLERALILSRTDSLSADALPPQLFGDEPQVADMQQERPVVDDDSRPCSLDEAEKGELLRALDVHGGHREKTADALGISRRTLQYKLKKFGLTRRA

[8] = biological target: T7, DVU1063 response regulator (Desulfovibrio vulgaris Hildenborough, UniProt Q72D66 1-479); assay: as above; conditions: protein: recombinant; tags: C-terminal V5-6xHis; chain copies: 2; label: 5'-biotin top strand; blunt
T7 sequence: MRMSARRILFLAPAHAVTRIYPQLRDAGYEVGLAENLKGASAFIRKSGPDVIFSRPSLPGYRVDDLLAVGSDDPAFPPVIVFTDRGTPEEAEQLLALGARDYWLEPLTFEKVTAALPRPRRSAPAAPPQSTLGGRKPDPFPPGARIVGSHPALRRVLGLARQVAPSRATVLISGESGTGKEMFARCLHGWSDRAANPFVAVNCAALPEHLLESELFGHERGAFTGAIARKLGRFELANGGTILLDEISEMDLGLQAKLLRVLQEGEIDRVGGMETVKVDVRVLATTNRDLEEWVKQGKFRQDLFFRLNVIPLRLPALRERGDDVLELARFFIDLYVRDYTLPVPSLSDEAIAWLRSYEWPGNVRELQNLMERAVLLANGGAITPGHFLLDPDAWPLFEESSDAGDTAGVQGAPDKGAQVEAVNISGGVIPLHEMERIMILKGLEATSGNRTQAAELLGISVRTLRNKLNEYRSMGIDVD

[9] = biological target: T8, DVU2394 response regulator (Desulfovibrio vulgaris Hildenborough, UniProt Q729F7 1-463); assay: EMSA; 10 mM Tris-HCl pH 7.5, 1 mM DTT, 50 mM KCl, 5 mM MgCl2, 25% glycerol, 1 ug/ml poly dI-dC, 50-100 fmol biotinylated DNA, 25-30 C, 20 min; conditions: protein: recombinant; tags: C-terminal V5-6xHis; chain copies: 2; label: 5'-biotin top strand
T8 sequence: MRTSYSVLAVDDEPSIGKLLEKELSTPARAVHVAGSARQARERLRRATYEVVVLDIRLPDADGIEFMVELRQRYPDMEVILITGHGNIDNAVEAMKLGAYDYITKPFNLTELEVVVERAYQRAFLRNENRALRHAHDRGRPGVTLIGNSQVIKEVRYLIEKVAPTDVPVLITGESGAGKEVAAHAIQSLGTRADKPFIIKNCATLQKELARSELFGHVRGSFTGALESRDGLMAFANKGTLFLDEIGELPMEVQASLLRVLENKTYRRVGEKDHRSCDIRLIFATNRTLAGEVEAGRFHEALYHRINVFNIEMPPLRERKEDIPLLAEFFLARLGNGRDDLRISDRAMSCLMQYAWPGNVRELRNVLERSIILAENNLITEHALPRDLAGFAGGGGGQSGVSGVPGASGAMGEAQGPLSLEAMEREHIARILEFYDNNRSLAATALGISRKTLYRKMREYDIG

In the case of “GTCGGCGATTTCCATGAAGACTCCGGTGGTGTCTGGCGGGACATGAAAGAACTGTGCCGAAGGGTGACACCCCGGCAGATGCTGATGCCGGGTGCGCCACCACAGGCCAGCCCTTGCACCATGTCGCATCGCAAGGTCTCTGCGTTGCCTCGCAACGCGGTGCCGTGCACCATGAATGTGCAAACGATGGCACACAACGCCACGGCGTGCAATAAGATGCACACCACCTGCACATATCAAGCCTCATGTGAAGGAAAAGGACGGC (double strand) [DVU1418 upstream]”, the binding [1] is reported as “binds”.

B1: DVU0677 motif wt (dsDNA)
DNA 1: AATCGCACGCCGTGCGTATTCGCACGTGCTTTTCCG
DNA 2: CGGAAAAGCACGTGCGAATACGCACGGCGTGCGATT
B1: binds [2].

B2: DVU0123 motif wt (dsDNA)
DNA 1: CGAACAGGAACATGTTCCCTCAAAGGAACATCGTTGGTGGAA
DNA 2: TTCCACCAACGATGTTCCTTTGAGGGAACATGTTCCTGTTCG
B2: binds [3].

B3: DVU0123 motif mut (dsDNA)
DNA 1: CGAACAGGAACTTCTTGCCTCAAAGGTACGTCGTTGGTGGAA
DNA 2: TTCCACCAACGACGTACCTTTGAGGCAAGAAGTTCCTGTTCG
B3: no binding [4].

B4: DVU0943 motif wt (dsDNA)
DNA 1: AGGTTTACGATGCAAAGTGATGTTTGCAGCTTGCCGAG
DNA 2: CTCGGCAAGCTGCAAACATCACTTTGCATCGTAAACCT
B4: binds [5]; binds [6].

B5: DVU1418 motif wt (dsDNA)
DNA 1: GCCGTGGCGTTGTGTGCCATCGTTTGCACATTCATGGTGC
DNA 2: GCACCATGAATGTGCAAACGATGGCACACAACGCCACGGC
B5: binds [7].

B6: DVU1418 motif mut (dsDNA)
DNA 1: GCCGTGGCGTTGTATGCCATCGTTTGCTCGTTCATGGTGC
DNA 2: GCACCATGAACGAGCAAACGATGGCATACAACGCCACGGC
B6: no binding [7].

B7: DVU1032 motif wt (dsDNA)
DNA 1: GGCATGGTCGGGCGGCAGTTTTTTCCTGTATCCTG
DNA 2: CAGGATACAGGAAAAAACTGCCGCCCGACCATGCC
B7: binds [8].

B8: DVU2405 motif mut (dsDNA)
DNA 1: TCCAGCCATCTATGTTTTTTCGTGACTATGTTGAAGTTCGACCCAA
DNA 2: TTGGGTCGAACTTCAACATAGTCACGAAAAAACATAGATGGCTGGA
B8: no binding [9].
